According to article PMC11526172:
Read-outs that look alike come from different tables or passages of the source.

B1: dsDNA (145 bp 601, unmodified) (dsDNA)
DNA 1: ATCGATGTATATATCTGACACGTGCCTGGAGACTAGGGAGTAATCCCCTTGGCGGTTAAAACGCGGGGGACAGCGCGTACGTGCGTTTGAGCGGTGCTAGAGCTGTCTACGACCAATTGAGCGGCCTCGGCACCGGGATTCTGAT
DNA 2: ATCAGAATCCCGGTGCCGAGGCCGCTCAATTGGTCGTAGACAGCTCTAGCACCGCTCAAACGCACGTACGCGCTGTCCCCCGCGTTTTAACCGCCAAGGGGATTACTCCCTAGTCTCCAGGCACGTGTCAGATATATACATCGAT
B2: dsDNA-8-oxodGuo-73 (dsDNA)
DNA 1: ATCGATGTATATATCTGACACGTGCCTGGAGACTAGGGAGTAATCCCCTTGGCGGTTAAAACGCGGGGGACAGCGCGTACGTGCGTTTGAGCGGTGCTAGAGCTGTCTACGACCAATTGAGCGGCCTCGGCACCGGGATTCTGAT
DNA 2: ATCAGAATCCCGGTGCCGAGGCCGCTCAATTGGTCGTAGACAGCTCTAGCACCGCTCAAACGCACGTACGCGCTGTCCCCCGCGTTTTAACCGCCAAGGGGATTACTCCCTAGTCTCCAGGCACGTGTCAGATATATACATCGAT
modifications: 8-oxodGuo at G73 of strand 1
B3: dsDNA-8-oxodGuo-89 (dsDNA)
DNA 1: ATCGATGTATATATCTGACACGTGCCTGGAGACTAGGGAGTAATCCCCTTGGCGGTTAAAACGCGGGGGACAGCGCGTACGTGCGTTTGAGCGGTGCTAGAGCTGTCTACGACCAATTGAGCGGCCTCGGCACCGGGATTCTGAT
DNA 2: ATCAGAATCCCGGTGCCGAGGCCGCTCAATTGGTCGTAGACAGCTCTAGCACCGCTCAAACGCACGTACGCGCTGTCCCCCGCGTTTTAACCGCCAAGGGGATTACTCCCTAGTCTCCAGGCACGTGTCAGATATATACATCGAT
modifications: 8-oxodGuo at G89 of strand 1
B4: dsDNA-8-oxodGuo-137 (dsDNA)
DNA 1: ATCGATGTATATATCTGACACGTGCCTGGAGACTAGGGAGTAATCCCCTTGGCGGTTAAAACGCGGGGGACAGCGCGTACGTGCGTTTGAGCGGTGCTAGAGCTGTCTACGACCAATTGAGCGGCCTCGGCACCGGGATTCTGAT
DNA 2: ATCAGAATCCCGGTGCCGAGGCCGCTCAATTGGTCGTAGACAGCTCTAGCACCGCTCAAACGCACGTACGCGCTGTCCCCCGCGTTTTAACCGCCAAGGGGATTACTCCCTAGTCTCCAGGCACGTGTCAGATATATACATCGAT
modifications: 8-oxodGuo at G137 of strand 1

Assays:
[1] = target: T1, hOGG1 K249Q (catalytically inactive) (Homo sapiens, UniProt O15527 1-345, K249Q); test: EMSA
[2] = target: T1, hOGG1 K249Q (catalytically inactive); test: EMSA; remark: listed apart in the source

T1 sequence (O15527 whole entry K249Q): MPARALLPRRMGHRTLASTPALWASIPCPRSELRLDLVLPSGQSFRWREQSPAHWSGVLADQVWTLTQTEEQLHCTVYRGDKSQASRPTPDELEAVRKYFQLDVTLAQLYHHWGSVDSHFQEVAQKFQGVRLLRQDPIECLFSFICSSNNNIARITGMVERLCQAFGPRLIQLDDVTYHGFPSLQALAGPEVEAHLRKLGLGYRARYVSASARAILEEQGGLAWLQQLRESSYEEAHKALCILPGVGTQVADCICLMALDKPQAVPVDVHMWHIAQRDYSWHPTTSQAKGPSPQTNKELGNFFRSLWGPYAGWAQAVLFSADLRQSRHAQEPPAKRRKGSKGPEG

Row | Binder | Kd [1] [nM] | Kd [2] [nM]
1 | B1 | 1310 ± 200 | 
2 | B2 |  | 240 ± 10
3 | B3 |  | 300 ± 10
4 | B4 |  | 420 ± 20
